{"source": "patent US20120201809A1", "about": "(COVX TECHNOLOGIES IRELAND, published 2012)", "binders": {"B1": {"name": "2.12.1.fx antibody (anti-IGF1R antibody) (antibody, human IgG2, kappa, V domains shown)", "VH": "QVQLVESGGGLVKPGGSLRLSCAASGFTFSDYYMSWIRQAPGKGLEWVSYISSSGSTRDYADSVKGRFTISRDNAKNSLYLQMNSLRAEDTAVYYCVRDGVETTFYYYYYGMDVWGQGTTVTVSS", "VL": "DIQMTQSPSSLSASVGDRVTITCRASQDIRRDLGWYQQKPGKAPKRLIYAASRLQSGVPSRFSGSGSGTEFTLTISSLQPEDFATYYCLQHNNYPRTFGQGTKLVIKR"}}, "key": {"[1]": {"molecular_target": "T1, human IGF1R on cells (mouse 3T3 cells engineered to express human IGF1R); human colon adenocarcinoma Colo205 … (human, UniProt P08069 31-1367)", "test": "cell-based or functional assay"}, "[2]": {"molecular_target": "T1, human IGF1R on cells (mouse 3T3 cells …)", "test": "cell-based or functional assay", "remark": "listed apart in the source"}}, "note": "Where two headings read alike, the source gives them in different places.", "data": [{"binder": "B1", "values": [{"measurement": "% IGF1R downregulated", "setting": "[1]", "value": 36, "unit": "%"}, {"measurement": "% IGF1R downregulated", "setting": "[2]", "value": 48, "unit": "%"}]}]}
